In article PMC3630167 (2013):
No end group written: not given here.

T1: synthetic (γ-D-Glu)5 (not fully specified (residues 1, 2, 3, 4, 5))
T1 peptide: EEEEE

B1: mAb F26G3 IgG1 subclass switch variant (antibody, V domains shown)
VH: EVQLVESGGGLVQPKGSLKLSCAASGFTFNTYAMNWVRQAPGKGLEWVARIRSKSNNYATYYADSVKDRFTISRDDSQSMLYLQMNNLKTEDTAMYYCVRGYYGWDYWGQGTSVTVSS
VL: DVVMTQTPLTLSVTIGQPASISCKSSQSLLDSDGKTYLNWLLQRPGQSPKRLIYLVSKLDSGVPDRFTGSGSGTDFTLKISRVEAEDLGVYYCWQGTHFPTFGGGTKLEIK
B2: mAb F24F2 IgG2b subclass switch variant (antibody, V domains shown)
VH: EVQLVESGGGLVQPKGSLKLSCAASGFTFNTYAMNWVRQAPGKGLEWVARIRSKSNNYATYYADSVKDRFTISRDDSQSMLYLQMNNLKTEDTAMYYCVRGLRYLDYWGQGTTLTVSS
VL: not shown
B3: mAb F26G3 IgG2b subclass switch variant (antibody, V domains shown)
VH: EVQLVESGGGLVQPKGSLKLSCAASGFTFNTYAMNWVRQAPGKGLEWVARIRSKSNNYATYYADSVKDRFTISRDDSQSMLYLQMNNLKTEDTAMYYCVRGYYGWDYWGQGTSVTVSS
VL: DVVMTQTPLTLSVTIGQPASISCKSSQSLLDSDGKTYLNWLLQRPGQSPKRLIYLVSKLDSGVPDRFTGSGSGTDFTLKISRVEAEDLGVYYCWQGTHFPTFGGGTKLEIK
B4: mAb F24F2 IgG2a subclass switch variant (antibody, V domains shown)
VH: EVQLVESGGGLVQPKGSLKLSCAASGFTFNTYAMNWVRQAPGKGLEWVARIRSKSNNYATYYADSVKDRFTISRDDSQSMLYLQMNNLKTEDTAMYYCVRGLRYLDYWGQGTTLTVSS
VL: not shown
B5: mAb F26G3 IgG2a subclass switch variant (antibody, V domains shown)
VH: EVQLVESGGGLVQPKGSLKLSCAASGFTFNTYAMNWVRQAPGKGLEWVARIRSKSNNYATYYADSVKDRFTISRDDSQSMLYLQMNNLKTEDTAMYYCVRGYYGWDYWGQGTSVTVSS
VL: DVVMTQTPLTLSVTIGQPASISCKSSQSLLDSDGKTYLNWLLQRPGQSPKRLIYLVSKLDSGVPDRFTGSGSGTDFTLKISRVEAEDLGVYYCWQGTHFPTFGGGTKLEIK
B6: mAb F24F2 IgG1 subclass switch variant (antibody, V domains shown)
VH: EVQLVESGGGLVQPKGSLKLSCAASGFTFNTYAMNWVRQAPGKGLEWVARIRSKSNNYATYYADSVKDRFTISRDDSQSMLYLQMNNLKTEDTAMYYCVRGLRYLDYWGQGTTLTVSS
VL: not shown

Biological target: T1, synthetic (γ-D-Glu)5

Binder	Kd
B1	13 µM
B2	9 µM
B3	6.7 µM
B4	18 µM
B5	45 µM
B6	18 µM
